Patent publication US12110325B2, “TM4SF5-targeting humanized antibody and use thereof” (KOREA RESEARCH INSTITUTE OF BIOSCIENCE AND BIOTECHNOLOGY, priority 2022, dated 2024)

T1: TM4SF5 (Homo sapiens, UniProt O14894)
T1 construct: expressed in transfected cells; SNU449Cp (TM4SF5-low control)
T1 sequence (O14894 1-197): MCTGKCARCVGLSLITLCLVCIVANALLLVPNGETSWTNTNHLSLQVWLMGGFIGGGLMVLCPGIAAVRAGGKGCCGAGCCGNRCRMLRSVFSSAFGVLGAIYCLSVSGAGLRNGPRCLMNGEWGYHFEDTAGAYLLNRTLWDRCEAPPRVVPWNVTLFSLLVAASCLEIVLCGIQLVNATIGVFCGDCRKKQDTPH


Columns and labels:
SNU449T7 cells [1] = experiment: Combination treatment in SNU449T7 xenograft mouse model; format: in vivo; details: for inhibited tumor growth relative to the control: Ab27 270, sorafenib 1,200, doxorubicin 20 μg/mouse/dose i.p. twice per week, 6 times in total, alone or combined
Description: For combination treatment, SNU449T7 (1×10^6) cells were subcutaneously injected into the mice. When volumes reached about 100 mm^3, the tumor-bearing mice were randomized into control and treatment groups (n=6 per group). Ab27 (270 μg/mouse), sorafenib (1,200 μg/mouse), or doxorubicin (20 μg/mouse) was intraperitoneally (i.p.) injected twice per week (6 times in total). For the combination treatment group, Ab27 and sorafenib or doxorubicin were intraperitoneally (i.p.) injected at 6-hour intervals. Sorafenib was dissolved in DMSO/Cremophor EL/PBS (1:1:8).
(§1) Body weight and tumor volume were measured before injection of the antibody or drug. Tumor volumes were calculated using the formula width^2×length/2). Tumor masses were lysed as described in the literature for immunoblot analysis (J Clin Invest, 2008. 118 (4): pp. 1354-66) or tumor masses were fixed in 10% formalin and embedded in paraffin.
SNU449T7 (1×10^6) cells were mixed with Matrigel and subcutaneously injected into the back, and then Ab27 (270 μg/mouse/dose); sorafenib (1,200 μg/mouse/dose); doxorubicin (20 μg/mouse/dose); a combination of Ab27 (270 μg/mouse/dose) and sorafenib (1,200 μg/mouse/dose) or a combination of doxorubicin (20 μg/mouse/dose); or saline (control) were intraperitoneally injected twice per week (6 times in total) into nude mice (n=6 per group) bearing SNU449T7 xenografts.

[2] = system: sorafenib-resistant SNU449T7 cells; experiment: Sorafenib-resistant SNU449T7 cell xenograft model; format: in vivo, mouse
Description: SNU449T7 cells were treated with sorafenib (1 μM to 10 μM) for 2 weeks, and the surviving cells (sorafenib-resistant SNU449T7; 1×10^6 cells) were mixed with Matrigel on ice and then injected subcutaneously into the backs of the mice. After 11 days, when tumor volumes reached about 100 mm^3, the tumor-bearing mice were randomized into control and treatment groups (n=7 per group). Ab27 (250 μg/mouse) or sorafenib (400 μg/mouse) was intraperitoneally (i.p.) injected at 2- or 3-day intervals for 2 or 3 weeks (8 times in total).
as §1
The antitumor activity of Ab27 was evaluated in a sorafenib-resistant SNU449T7 cell xenograft model. TM4SF5-overexpressing SNU449T7 cells were treated with sorafenib (1 μM to 10 μM; 3 culture medium changes per week) for 3 weeks, and the surviving sorafenib-resistant cells (1×10^6) were mixed with Matrigel and then subcutaneously injected into the flanks of the nude mice. Ab27 (250 μg/mouse) or sorafenib (400 μg/mouse) was injected at 2- or 3-day intervals (8 times in total).

SNU-398 cells = experiment: SNU-398 liver cancer xenograft (endogenous TM4SF5); format: in vivo; details: Ab27 300, cetuximab 300 or sorafenib 600 μg/mouse/dose
Description: as §1
(§2) Formalin-fixed and paraffin-embedded 6-μm-thick tissue sections from xenograft tumors were processed for immunohistochemistry analysis as per the standard protocol. Sections were stained with anti-Ki67 antibody (SP6; Abcam) using the peroxidase technique. The proliferative index (%) was determined by calculating the number of Ki67^+ cells relative to the total number of cells, which consisted of at least 1,000 cells per field. Five randomly selected fields from tumor sections per mouse were analyzed using ImageJ software.

[3] = system: endogenous TM4SF5-expressing tumors; experiment: In vivo tumor targeting, DyLight 755-labeled antibody, SNU-398 xenograft; parameters: species or system mouse; details: DyLight 755 label, tail vein, 96 hours; control IgG mostly in the liver
Description: (§3) Ab27, Ab27-hz9, and normal human IgG were conjugated with DyLight 755 and purified using a DyLight 755 Antibody Labeling Kit (Thermo Scientific) according to the manufacturer's instructions. When the size of the tumor formed by SNU449T7 or SNU-398 cell reached about 100 mm^3, 70 μg of dye-labeled antibody was injected into the tail vein of nude mice. The distribution profiles of the antibody were quantified by in vivo fluorescence using IVIS imaging system at 0, 24, 48, 72, and 96 hours after antibody injection. The tumor was removed at 96 hours after injection to determine the distribution of the DyLight755-labeled antibody in tumor tissues.
Additionally, in vivo tumor targeting of Ab27 and Ab27-hz9 were examined using a SNU-398 xenograft mouse model. To confirm in vivo tumor targeting of Ab27 and Ab27-hz9 in endogenous TM4SF5-expressing liver cancer xenografts, SNU-398 cells were subcutaneously injected into the flanks of the nude mice so as to prepare mice bearing tumors. Ab27, Ab27-hz9, and control human IgG were labeled with DyLight 755 were injected into the tail veil of tumor-bearing mice, and fluorescence was measured after 96 hours.

TM4SF5 [4] = biological target: T1, TM4SF5; experiment: Flow cytometry of SNU449Cp and SNU449Tp cells; format: cell-based
Description: To analyze antibody binding to TM4SF5, flow cytometry was performed using SNU449Cp, SNU449Tp, HEK293E, and CT26 cells. HCT-116, SNU-398, HT-29, C8161, and SNU-638 cells that had been transiently transfected with either a TM4SF5-specific siRNA or a negative control siRNA were also analyzed. Cells (2×10^5) were incubated with Ab27 or Ab27-hz9 at 0.03 μg to 0.3 μg at 4° C. for 45 minutes in 100 μL PBS containing 1% BSA. The cells were washed twice with 1% BSA/PBS, followed by a 30-minute incubation with fluorescein isothiocyanate (FITC)-conjugated anti-human IgG (Fc-specific; Pierce, Rockford, Ill., USA). Viable propidium iodide (PI)^− cells were analyzed for antibody binding using FACSCalibur (BD Immunocytometry System, San Jose, Calif., USA). To generate hemagglutinin (HA)-tagged mouse TM4SF5-expression vector, mouse TM4SF5 cDNA (Accession No. NM_029360.3) was subcloned into pCMV-HA-N vector (Clonetech, Mountain View, Calif.). PC3 cells transiently transfected with HA-tagged mouse TM4SF5-expression vector were incubated with Ab27 and anti-HA, and then analyzed by flow cytometry.

TM4SF5 [5] = biological target: T1, TM4SF5; experiment: Internalization analysis of SNU449Tp cells by flow cytometry; format: cell-based; details: Ab27 0.3 μg/mL, Ab27-hz9 0.2 μg/mL
Description: Cell-surface binding and subsequent internalization of Ab27 and Ab27-hz9 were analyzed using flow cytometry. Briefly, cells were incubated with Ab27 or Ab27-hz9 at 4° C. for 45 minutes, washed to remove unbound antibodies, and then either warmed to 37° C. to allow internalization or maintained at 4° C. Cells were transferred to ice-cold buffer to stop the occurrence of internalization and stained with FITC-conjugated anti-human IgG. PI^− cells were analyzed by flow cytometry. The relative levels of Ab27 or Ab27-hz9 bound to the cell surface were calculated as the shift in the fluorescence signal of the antibody occupancy relative to that detected at the beginning of the internalization period.
For the internalization analysis of SNU449Tp cells with Ab27 and Ab27-hz9, Ab27 (0.3 μg/mL) and Ab27-hz9 (0.2 μg/mL) were used to maintain a similar extent of initial antibody binding to TM4SF5.

[6] = system: SNU449Tp cell-derived tumors; experiment: In vivo tumor targeting, DyLight 755-labeled antibody, SNU449T7 xenograft; parameters: species or system mouse; details: DyLight 755 label, 96 hours after injection; control IgG mostly in the liver
Description: as §3
In order to validate the tumor-targeting ability of anti-TM4SF5 antibodies, the distributions of Ab27 and Ab27-hz9 after injection into SNU449Tp xenograft model were determined. SNU449T7 cells were subcutaneously injected into the flanks of the nude mice so as to prepare mice bearing tumors. Ab27, Ab27-hz9, and control human IgG were labeled with a fluorescent dye (DyLight 755) and […] injected into nude mice bearing SNU449Tp cell-derived tumors. After 96 hours, the distribution of the dye-labeled antibody was quantified by measuring the total photon flux of the fluorescence.

SNU449T7 cells [7] = experiment: SNU449T7 liver cancer xenograft, Ab27-hz9 versus Ab27 and cetuximab; format: in vivo, mouse
Description: SNU449T7 (1×10^7) cells were subcutaneously injected into the flanks of mice. When volumes reached about 100 mm^3, the tumor-bearing mice were randomized into control and treatment groups (n=6 per group). […] Normal human IgG was injected as a negative control.
as §1, §2
The antitumor efficacy of Ab27-hz9 was evaluated in the SNU449T7 xenograft model. SNU449T7 cells (3×10^6) were subcutaneously injected into the flanks of mice.

TM4SF5 [8] = biological target: T1, TM4SF5; experiment: Immunocytochemistry of SNU449Cp and SNU449Tp cells; format: cell-based; details: SNU449Tp versus SNU449Cp; Ab27-hz9 with a stronger level
Description: SNU-449Cp, SNU-449Tp, and HepG2 and HT-29 cells that had been transiently transfected with TM4SF5-specific siRNA were plated on coverslips and incubated for 48 hours. The cells were then fixed for 20 minutes in methanol and permeabilized with acetone for 1 minute. After blocking in 1% normal horse serum, the cells were incubated with Ab27 or Ab27-hz9 ([…]), followed by a corresponding secondary antibody conjugated to FITC. The cells were counterstained with 4,6-diamidino-2-phenylindole (DAPI; Sigma) to visualize nuclei. Immunofluorescent images were acquired under a confocal microscope (LSM 510 META, Carl Zeiss, Jena, Germany).

Molecule | inhibited tumor growth relative to the control (SNU449T7 cells [1]) | immunoblot of xenograft tumor tissues: phosphorylation of FAK, c-Src, p27Kip1, STAT3 and expression of BMI1 ([2]; Ab27 250 μg/mouse or sorafenib 400 μg/mouse) | tumor growth (in words) ([2]; sorafenib 400 μg/mouse/dose, 8 times in total) | phosphorylation of STAT3 in tumor lysates (SNU449T7 cells [1]; sorafenib 1,200 μg/mouse/dose) | Ki67 proliferation index of tumor sections (SNU-398 cells) | inhibited tumor growth (tumor volume) (SNU-398 cells; 6 times in total, normal human IgG control) | distribution of dye-labeled antibody (fluorescence) [3] | binding to SNU449Tp (high-TM4SF5) versus SNU449Cp (TM4SF5-low) cells (TM4SF5 [4]) | residual level of cell surface-bound antibody (TM4SF5 [5]) | distribution of dye-labeled antibody (total photon flux) [6] | level of proliferative Ki67+ cells in tumor sections versus control mice (SNU449T7 cells [7]; 300 μg/mouse/dose) | inhibited tumor growth (tumor volume) (SNU449T7 cells [7]; 300 μg/mouse/dose i.p. 3 or 4 times per week, 12 times in total, normal human IgG control) | body weight (SNU449T7 cells [7]; 300 μg/mouse/dose, 12 times in total) | immunofluorescence staining of membrane edges (TM4SF5 [8])
COc1cccc2c1C(=O)c1c(O)c3c(c(O)c1C2=O)C[C@@](O)(C(=O)CO)C[C@@H]3O[C@H]1C[C@H](N)[C@H](O)[C@H](C)O1 [doxorubicin] | 26% |  |  |  |  |  |  |  |  |  |  |  |  | 
CNC(=O)c1cc(Oc2ccc(NC(=O)Nc3ccc(Cl)c(C(F)(F)F)c3)cc2)ccn1 [sorafenib] | 42% | relatively moderately decreased the phosphorylation of FAK, c-Src, p27^KiP1, and STAT3 | did not remarkably decrease tumor growth | abolished the phosphorylation of STAT3 | significantly decreased | 51% |  |  |  |  |  |  |  | 
Ab27-hz9: humanized monoclonal antibody of Ab27; VH SEQ ID NO: 7, VL SEQ ID NO: 8; IGHV1-2 and IGKV3-20 frameworks (antibody, V domains shown, VH; VL, humanized monoclonal antibody of Ab27; IGHV1-2 and IGKV3-20 frameworks) VH: QVQLVQSGAEVKKPGASVKVSCKASGYTFTDYEMHWVRQAPGQGLEWMGAIDPETGGTAYNQKFKGRVTMTADKSISTAYMELSRLRSDDTAVYYCARPYLGYWGQGTLVTVSS VL: EIVLTQSPGTLSLSPGERATLSCRSSQSLVHSNGNTYLHWYQQKPGQAPRLLIYKVSNRFSGIPDRFSGSGSGTDFTLTISRLEPEDFAVYYCFQGSHIPLTFGQGTKVEIK |  |  |  |  |  |  | substantially localized in endogenous TM4SF5-expressing tumors | bound more efficiently to SNU449Tp cells than to SNU449Cp cells | significantly reduced | predominantly localized to the tumors | significantly lower | about 66% | without affecting body weight | stained the membrane edges of SNU449Tp cells, but not those of SNU449Cp cells
